Experimental data: US20200102387A1 (CELGENE, published 2020)
Read-outs that look alike come from different tables or passages of the source.

Key:
[1] = target: T1, mouse SIRPα-Fc (mouse); test: BLI Octet, antigen-Fc on biosensor;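 for result: antigen captured on the biosensor tip and then immersed in solutions of the test antibodies, which act as the analyte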
T1 construct: a signal peptide may be part of the entry; also called Ms; Ms SIRPα-Fc

[2] = target: T2, human SIRPα v2-Fc (SIRPα2 extracellular domain fused to human IGHG1_Fc) (human, UniProt P78324 31-373; P0DOX5 223-449 = IgG part); test: BLI Octet, antigen-Fc on biosensor;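 note: antigen captured on the biosensor tip and then immersed in solutions of the test antibodies, which act as the analyte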
T2 construct: as m38; also called V2 (e.g. SIRPα2); SIRPα V2:ESE

[3] = target: T3, human SIRPα v3-Fc (SIRPα3 extracellular domain fused to human IGHG1_Fc) (human, UniProt P78324 31-373; P0DOX5 223-449 = IgG part); test: BLI Octet, antigen-Fc on biosensor;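 note: antigen captured on the biosensor tip and then immersed in solutions of the test antibodies, which act as the analyte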
T3 construct: as m38; also called V3 (e.g. SIRPα3)

[4] = target: T4, cynomolgus SIRPα on cells (cynomolgus, UniProt P78324 31-373 (human entry)); test: cell binding, Cyno SIRPα-CHO-K1 cells, 100 nM antibody
T4 construct: also called cyno SIRPα-CHO; Cyno SIRPα-CHO-K1; not shown: Transmembrane and cytoplasmic region of cynomolgus SIRPα
T4 chain: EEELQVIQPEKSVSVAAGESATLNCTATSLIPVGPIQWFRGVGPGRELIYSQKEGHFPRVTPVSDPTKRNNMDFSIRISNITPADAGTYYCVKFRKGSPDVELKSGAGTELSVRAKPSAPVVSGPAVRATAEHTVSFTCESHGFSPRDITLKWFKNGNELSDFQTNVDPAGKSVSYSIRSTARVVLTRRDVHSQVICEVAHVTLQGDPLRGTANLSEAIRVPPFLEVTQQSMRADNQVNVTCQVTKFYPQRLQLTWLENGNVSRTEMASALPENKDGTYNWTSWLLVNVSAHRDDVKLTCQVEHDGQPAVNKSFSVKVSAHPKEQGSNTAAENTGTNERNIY

[5] = target: T5, human SIRPα on cells (human, UniProt P78324 31-504); test: cell binding, Hu SIRPα-CHO-K1 cells, 100 nM antibody
T5 construct: whole, on cells; also called human SIRPα-CHO; Hu SIRPα-CHO-K1

[6] = target: T6, human SIRPγ-Fc (human); test: BLI Octet, antigen-Fc on biosensor;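 note: antigen captured on the biosensor tip and then immersed in solutions of the test antibodies, which act as the analyte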
T6 construct: a signal peptide may be part of the entry

[7] = target: T7, human SIRPα v1-Fc (SIRPα1 extracellular domain fused to human IGHG1_Fc) (human, UniProt P78324 31-373; P0DOX5 223-449 = IgG part); test: BLI Octet, antigen-Fc on biosensor
T7 construct: also called V1 (e.g. SIRPα1); SIRPα V1: DLN

[8] = target: T8, human SIRPβ-Fc (human); test: BLI Octet, antigen-Fc on biosensor
T8 construct: a signal peptide may be part of the entry

[9] = target: T9, cyno SIRPα-Fc (cynomolgus); test: BLI Octet, antigen-Fc on biosensor
T9 construct: a signal peptide may be part of the entry

[10] = target: T10, human SIRPα v6-Fc (SIRPα6 extracellular domain fused to human IGHG1_Fc) (human, UniProt P78324 31-373; P0DOX5 223-449 = IgG part); test: BLI Octet, antigen-Fc on biosensor
T10 construct: as m38; also called V6 (e.g. SIRPα6)

[11] = target: T11, human SIRPα v5-Fc (SIRPα5 extracellular domain fused to human IGHG1_Fc) (human, UniProt P78324 31-373; P0DOX5 223-449 = IgG part); test: BLI Octet, antigen-Fc on biosensor
T11 construct: as m38; also called V5 (e.g. SIRPα5)

[12] = target: T1, mouse SIRPα-Fc; test: BLI Octet, antigen-Fc on biosensor; remark: listed apart in the source
[13] = target: T12, human SIRPα v4-Fc (SIRPα4 extracellular domain fused to human IGHG1_Fc) (human, UniProt P78324 31-373; P0DOX5 223-449 = IgG part); test: BLI Octet, antigen-Fc on biosensor
T12 construct: as m38; also called V4 (e.g. SIRPα4)

T1 sequence (chain, as listed by the source limits assumed): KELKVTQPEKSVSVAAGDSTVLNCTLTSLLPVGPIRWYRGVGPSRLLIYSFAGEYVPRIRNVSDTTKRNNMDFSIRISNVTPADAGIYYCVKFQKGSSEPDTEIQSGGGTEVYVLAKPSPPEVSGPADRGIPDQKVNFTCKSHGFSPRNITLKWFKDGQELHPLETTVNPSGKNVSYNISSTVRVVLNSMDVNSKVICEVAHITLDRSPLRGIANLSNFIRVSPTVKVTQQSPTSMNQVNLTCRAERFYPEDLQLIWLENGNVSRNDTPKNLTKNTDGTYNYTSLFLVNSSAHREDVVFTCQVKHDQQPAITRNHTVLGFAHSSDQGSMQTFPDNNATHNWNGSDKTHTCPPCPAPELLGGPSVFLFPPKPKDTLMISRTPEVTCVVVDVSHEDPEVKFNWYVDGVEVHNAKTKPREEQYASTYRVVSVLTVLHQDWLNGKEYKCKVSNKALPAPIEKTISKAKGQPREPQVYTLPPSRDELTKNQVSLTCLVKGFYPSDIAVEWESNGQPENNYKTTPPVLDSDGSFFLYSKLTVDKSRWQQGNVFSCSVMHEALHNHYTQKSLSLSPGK

B1: SIRPAB-8 (antibody, human IgG1, kappa, V domains shown)
VH: QVQLVQSGAEVKKPGASVKVSCKASGYTFTSYGISWVRQAPGQGLEWMGWISPYNGNTNYAQKLQGRVTMTTDTSTSTAYMELRSLRSDDTAVYYCAREAGSSWYDFDLWGRGTLVTVSS
VL: DIQMTQSPSSVSASVGDRVTITCRASQGISSWLAWYQQKPGKAPKLLIYAASNLQSGVPSRFSGSGSGTDFTLTISSLQPEDFATYYCQQGASFPITFGGGTKVEIKR
- binding result [1]: no binding
- binding result [2]: no binding
- Kd [3]: 22.3 nM
- koff [3]: 0.0226 s⁻¹
- kon [3]: 1.02e+06 M⁻¹ s⁻¹
- fold increase over background (100 nM) [4]: 1020 fold
- fold increase over background (100 nM) [5]: 1310 fold

B2: SIRPAB-13 (antibody, human IgG1, kappa, V domains shown)
VH: QVQLVQSGAEVKKPGASVKVSCKASGYTFHGYGISWVRQAPGQGLEWMGWISAYSGETNYAQKLQGRVTMTTDTSTSTAYMELRSLRSDDTAVYYCAREAGSSWYDFDLWGRGTLVTVSS
VL: DIQMTQSPSSVSASVGDRVTITCRASQGISSWLAWYQQKPGKAPKLLIYAASNLQSGVPSRFSGSGSGTDFTLTISSLQPEDFATYYCQQGASFPITFGGGTKVEIKR
- Kd [6]: 4.12 nM
- koff [6]: 0.00558 s⁻¹
- kon [6]: 1.35e+06 M⁻¹ s⁻¹
- Kd [7]: 1.65 nM
- koff [7]: 0.00205 s⁻¹
- kon [7]: 1.24e+06 M⁻¹ s⁻¹
- binding result [1]: no binding
- Kd [8]: 4.52 nM
- koff [8]: 0.00544 s⁻¹
- kon [8]: 1.21e+06 M⁻¹ s⁻¹
- Kd [9]: 14.9 nM
- koff [9]: 0.0197 s⁻¹
- kon [9]: 1.32e+06 M⁻¹ s⁻¹
- Kd [10]: 2.71 nM
- koff [10]: 0.00364 s⁻¹
- kon [10]: 1.35e+06 M⁻¹ s⁻¹
- Kd [11]: 7.73 nM
- koff [11]: 0.00892 s⁻¹
- kon [11]: 1.16e+06 M⁻¹ s⁻¹
- Kd [2]: 17.2 nM
- koff [2]: 0.0172 s⁻¹
- kon [2]: 1e+06 M⁻¹ s⁻¹
- Kd [3]: 0.83 nM
- koff [3]: 0.000965 s⁻¹
- kon [3]: 1.17e+06 M⁻¹ s⁻¹

B3: SIRPAB-1 (antibody, human IgG1, kappa, V domains shown)
VH: QVQLQESGPGLVKPSQTLSLTCTVSGGSISSGGYYWSWIRQHPGKGLEWIGSIYYSGSTYYNPSLKSRVTISVDTSKNQFSLKLSSVTAADTAVYYCAREGYHSGMDVWGQGTTVTVSS
VL: DIQMTQSPSSLSASVGDRVTITCQASQDISNYLNWYQQKPGKAPKLLIYDASNLATGVPSRFSGSGSGTDFTFTISSLQPEDIATYYCQQFAYLPWTFGGGTKVEIKR
- Kd [6]: 1.43 nM
- Kd [8]: 4.61 nM
- Kd [10]: 54.9 nM
- Kd [2]: 44.2 nM

B4: SIRPAB-6 (antibody, human IgG1, kappa, V domains shown)
VH: QVQLQESGPGLVKPSQTLSLTCTVSGGSISSGGYYWSWIRQHPGKGLEWIGYIYYSGSTYYNPSLKSRVTISVDTSKNQFSLKLSSVTAADTAVYYCAREGLDGSYGSSAWGQGTLVTVSS
VL: DIQLTQSPSSLSASVGDRVTITCQASQDISNYLNWYQQKPGKAPKLLIYDASNLETGVPSRFSGSGSGTDFTFTISSLQPEDIATYYCQQFAYLPYTFGGGTKVEIKR
- Kd [6]: 8.36 nM
- binding result [1]: no binding
- binding result [10]: no binding
- binding result [2]: no binding

B5: SIRPAB-2 (antibody, human IgG1, kappa, V domains shown)
VH: QVQLQESGPGLVKPSQTLSLTCTVSGGSISSGGDYWAWIRQHPGKGLEWIGYIYPSGFTYYNPSLKSRVTISVDTSKNQFSLKLSSVTAADTAVYYCAREGYHSGMDVWGQGTTVTVSS
VL: DIQMTQSPSSLSASVGDRVTITCQASQDISNYLNWYQQKPGKAPKLLIYDASNLATGVPSRFSGSGSGTDFTFTISSLQPEDIATYYCQQFAYLPWTFGGGTKVEIKR
- Kd [6]: 0.14 nM
- Kd [8]: 0.89 nM
- Kd [9]: 19.3 nM
- Kd [10]: 11.9 nM
- Kd [2]: 10.7 nM

B6: SIRPAB-3 (antibody, human IgG1, kappa, V domains shown)
VH: QVQLQESGPGLVKPSQTLSLTCTVSGGSISSGGWYWQWIRQHPGKGLEWIGTIYYSGSTFYNPSLKSRVTISVDTSKNQFSLKLSSVTAADTAVYYCAREGYHSGMDVWGQGTTVTVSS
VL: DIQMTQSPSSLSASVGDRVTITCQASQDISNYLNWYQQKPGKAPKLLIYDASNLATGVPSRFSGSGSGTDFTFTISSLQPEDIATYYCQQFAYLPWTFGGGTKVEIKR
- Kd [6]: 0.118 nM
- Kd [7]: 0.2 nM
- Kd [1]: 12.6 nM
- Kd [8]: 0.22 nM
- Kd [9]: 7.95 nM

B7: SIRPAB-20 (antibody, human IgG1, kappa, V domains shown)
VH: QVQLQESGPGLVKPSQTLSLTCTVSGGSISSGGYYWSWIRQHPGKGLEWIGAIYYSGPIYYNPSLKSRVTISVDTSKNQFSLKLSSVTAADTAVYYCSKEGYHSGMDVWGQGTTVTVSS
VL: DIQMTQSPSSLSASVGDRVTITCQASQDISDYLNWYQQKPGKAPKLLIYDADNLETGVPSRFSGSGSGTDFTFTISSLQPEDIATYYCQQFAYLPWTFGGGTKVEIKR
- Kd [12]: 0.39 nM

B8: SIRPAB-7 (antibody, human IgG1, kappa, V domains shown)
VH: QVQLQESGPGLVKPSQTLSLTCTVSGGSISSGEYYWEWIRQHPGKGLEWIGYIYSSGFTYYNPSLKSRVTISVDTSKNQFSLKLSSVTAADTAVYYCAREGLDGSYGSSAWGQGTLVTVSS
VL: DIQLTQSPSSLSASVGDRVTITCQASQDISNYLNWYQQKPGKAPKLLIYDASNLETGVPSRFSGSGSGTDFTFTISSLQPEDIATYYCQQFAYLPYTFGGGTKVEIKR
- Kd [13]: 0.95 nM
- koff [13]: 0.00165 s⁻¹
- kon [13]: 1.74e+06 M⁻¹ s⁻¹
- Kd [6]: 0.1 nM
- koff [6]: 0.0002 s⁻¹
- kon [6]: 1.94e+06 M⁻¹ s⁻¹
- Kd [7]: 0.15 nM
- koff [7]: 0.000271 s⁻¹
- kon [7]: 1.84e+06 M⁻¹ s⁻¹
- Kd [8]: 2.56 nM
- koff [8]: 0.00391 s⁻¹
- kon [8]: 1.53e+06 M⁻¹ s⁻¹
- Kd [9]: 4.59 nM
- koff [9]: 0.00546 s⁻¹
- kon [9]: 1.19e+06 M⁻¹ s⁻¹
- Kd [10]: 12.2 nM
- koff [10]: 0.0111 s⁻¹
- kon [10]: 907000 M⁻¹ s⁻¹
- Kd [11]: 0.66 nM
- koff [11]: 0.00143 s⁻¹
- kon [11]: 2.17e+06 M⁻¹ s⁻¹
- Kd [2]: 13.2 nM
- koff [2]: 0.00956 s⁻¹
- kon [2]: 730000 M⁻¹ s⁻¹
- Kd [3]: 10.2 nM
- koff [3]: 0.00718 s⁻¹
- kon [3]: 702000 M⁻¹ s⁻¹
- fold increase over background (100 nM) [4]: 2390 fold
- fold increase over background (100 nM) [5]: 2100 fold

B9: SIRPAB-18 (antibody, human IgG1, kappa, V domains shown)
VH: QVQLQESGPGLVKPSQTLSLTCTVSGGSISSGGYYWSWIRQHPGKGLEWIGAIYYSGPIYYNPSLKSRVTISVDTSKNQFSLKLSSVTAADTAVYYCSKEGYHSGMDVWGQGTTVTVSS
VL: DIQMTQSPSSLSASVGDRVTITCQASQDISNYLNWYQQKPGKAPKLLIYDASNLATGVPSRFSGSGSGTDFTFTISSLQPEDIATYYCQQFAYLPWTFGGGTKVEIKR
- Kd [12]: 2.2 nM

B10: SIRPAB-5 (antibody, human IgG1, kappa, V domains shown)
VH: QVQLQESGPGLVKPSQTLSLTCTVSGGSISSGPAYWSWIRQHPGKGLEWIGTIYYSGSTFYNPSLKSRVTISVDTSKNQFSLKLSSVTAADTAVYYCAREGYHSGMDVWGQGTTVTVSS
VL: DIQMTQSPSSLSASVGDRVTITCQASQDISNYLNWYQQKPGKAPKLLIYDASNLATGVPSRFSGSGSGTDFTFTISSLQPEDIATYYCQQFAYLPWTFGGGTKVEIKR
- Kd [6]: 0.154 nM
- Kd [7]: 0.165 nM
- Kd [1]: 7.51 nM
- Kd [8]: 0.15 nM
- Kd [2]: 27.5 nM

B11: SIRPAB-4 (antibody, human IgG1, kappa, V domains shown)
VH: QVQLQESGPGLVKPSQTLSLTCTVSGGSISSGSPYWSWIRQHPGKGLEWIGYIYASGFTYYNPSLKSRVTISVDTSKNQFSLKLSSVTAADTAVYYCAREGYHSGMDVWGQGTTVTVSS
VL: DIQMTQSPSSLSASVGDRVTITCQASQDISNYLNWYQQKPGKAPKLLIYDASNLATGVPSRFSGSGSGTDFTFTISSLQPEDIATYYCQQFAYLPWTFGGGTKVEIKR
- Kd [6]: 0.144 nM
- Kd [7]: 0.45 nM
- Kd [1]: 72.8 nM
- Kd [8]: 1 nM
- Kd [9]: 18 nM
- Kd [2]: 18.2 nM

B12: SIRPAB-19 (antibody, human IgG1, kappa, V domains shown)
VH: QVQLQESGPGLVKPSQTLSLTCTVSGGSISSGGYYWSWIRQHPGKGLEWIGAIYYSGPIYYNPSLKSRVTISVDTSKNQFSLKLSSVTAADTAVYYCSKEGYHSGMDVWGQGTTVTVSS
VL: DIQMTQSPSSLSASVGDRVTITCQASDDISDYLNWYQQKPGKAPKLLIYDASNIEDGVPSRFSGSGSGTDFTFTISSLQPEDIATYYCQQFAYLPWTFGGGTKVEIKR
- Kd [12]: 1.02 nM
